Where two headings read alike, the source gives them in different places.
T1: Envelope protein (TM in the context of the whole envelope protein) on intact ecotropic N2 virus (Moloney murine leukemia virus, UniProt P03385 34-649, limits assumed)
T1 sequence (looked up): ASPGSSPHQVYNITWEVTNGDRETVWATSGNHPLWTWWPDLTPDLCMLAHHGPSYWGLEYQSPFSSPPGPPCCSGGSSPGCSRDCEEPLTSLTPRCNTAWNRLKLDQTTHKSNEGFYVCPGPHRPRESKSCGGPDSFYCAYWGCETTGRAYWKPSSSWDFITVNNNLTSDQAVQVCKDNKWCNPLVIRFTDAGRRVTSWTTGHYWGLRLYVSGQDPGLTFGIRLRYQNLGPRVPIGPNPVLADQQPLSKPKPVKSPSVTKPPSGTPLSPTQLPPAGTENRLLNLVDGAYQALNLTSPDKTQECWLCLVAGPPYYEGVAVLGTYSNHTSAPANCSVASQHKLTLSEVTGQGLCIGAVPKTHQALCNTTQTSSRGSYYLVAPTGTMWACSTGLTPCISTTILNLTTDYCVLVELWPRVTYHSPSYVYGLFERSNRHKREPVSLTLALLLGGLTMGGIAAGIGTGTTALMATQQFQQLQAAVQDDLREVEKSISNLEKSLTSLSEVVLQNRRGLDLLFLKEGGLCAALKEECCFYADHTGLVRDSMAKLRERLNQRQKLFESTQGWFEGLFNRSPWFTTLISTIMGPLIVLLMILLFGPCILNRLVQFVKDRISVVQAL

B1: GST-EIP-1 (other)
chain: MATGADVRDILELGGPEGDAASGTISKKDIINPDKKKSKKSSETLTFKRPEGMHREVYALLYSDKKDAPPLLPSDTGRGHRTVKAKLGSKKVRPWKWMPFTNPARKDGAMFFHWRRAAEEGKDYPFARFNKTVQVPVYSEQEYQLYLHDDAWTKAETDHLFDLSRRFDLRFVVIHDRYDHQQFKKRSVEDLKERYYHICAKLANVRAVPGTDLKIPVFDAGHERRRKEQLERLYNRTPEQVAEEEYLLQELRKIEARKKEEKRSQDLQKLITAADTTAEQRRTERKAPKKKLPQKKEAEKPAVPETAGIKFPDFKSAGVTLRSQRMKLPSSVGQKKIKALEQMLLELGVELSPTPTEELVHMFNELRSDLVLLYELKQACANCEYELQMLRHRHEALARAGVLGAPAAAAVGPTPASAEPTVSESGLGLDPTKDTIIDVVGAPLTPNSRKRRESASSSSSVKKAKKP
notes: It was used on glutathione agarose beads or eluted as soluble protein; also called EIP-1 fused with glutathione S-transferase; not shown: glutathione S-transferase (GST)

How the values were obtained:
[1] = molecular target: Envelope protein (TM) on amphotropic N2 virus (amphotropic murine retrovirus); assay: cell-based or functional assay
[2] = molecular target: Envelope protein (TM) on amphotropic N2 virus (amphotropic murine retrovirus); assay: cell-based or functional assay; remark: listed apart in the source
[3] = molecular target: Envelope protein (TM in the context of the whole envelope protein) on intact ecotropic N2 virus (Moloney murine leukemia virus) (UniProt P03385); assay: cell-based or functional assay
[4] = molecular target: T1, Envelope protein (TM in the context of …); assay: cell-based or functional assay
[5] = molecular target: T1, Envelope protein (TM in the context of …); assay: depletion of N2 virus by GST-EIP-1 beads; titer of remaining virus
Procedure: EIP-1 to EIP-5 have been examined using this assay to directly measure the binding of EIPs to the intact virus. In this binding assay, virus is mixed with GST-EIP-agarose beads and incubated for 2 hours. After incubation, the mixtures are centrifuged, and the supernatants are used to transduce fresh NIH3T3 cells. After two days, cells are split into G418-containing medium. Ten to twelve days later, colonies are counted. If the virus binds to EIPs, virus is retained on agarose beads leading to a reduction in virus titer in supernatant. […] In control samples, virus was incubated with GST-agarose beads or beads alone, and no change in virus titer was observed (Table 2).
Whether EIP-1 could interact with TM on the native virion particle was tested. GST-EIP-1 beads were incubated with preparations of a virus vector (N2) containing the neoR gene and pelleted, and the titer of the remaining virus was determined to test for depletion of infectivity from the stock. Whereas beads alone, beads containing GST, or beads with control GST fusions had no effect on the titer, beads with GST-EIP-1 could consistently reduce the titer approximately 4-fold.

Molecule | Fold Increase (amphotropic N2 virus on NIH3T3 cells) [2] | Neo^r Colonies, Amphotropic N2 virus 5 µl (1:10), NIH3T3 cells [2] | Neo^r Colonies, Amphotropic N2 virus 5 µl (1:25), NIH3T3 cells [2] | Fold Increase (amphotropic N2 virus on NIH3T3 cells) [1] | Neo^r Colonies, 1:1 (amphotropic N2 virus on NIH3T3 cells) [1] | Neo^r Colonies, 1:5 (amphotropic N2 virus on NIH3T3 cells) [1] | Fold Increase (ecotropic N2 virus on NIH3T3 cells) [3] | Neo^r Colonies, 1:1 (ecotropic N2 virus on NIH3T3 cells) [3] | Neo^r Colonies, 1:5 (ecotropic N2 virus on NIH3T3 cells) [3] | other results
GST-EIP-1 (from UniProt Q9JI44 1-468) |  |  |  |  |  |  |  |  |  | increase of titer of amphotropic viruses titered on human cells [1]: 5 to 8 fold
GST-EIP-1A (from UniProt Q9JI44 1-468) | 8 fold | 854 colonies | 136 colonies | 7 fold | 854 colonies | 136 colonies |  |  |  | 
GST-EIP-1B (from UniProt Q9JI44 1-468) | 6 fold | 403 colonies | 102 colonies | 5 fold | 403 colonies | 102 colonies | 30 fold | > 1000 colonies | 353 colonies | Fold Increase (amphotropic N2 virus on Hela cells) [1]: 6 fold; Neo^r Colonies, Amphotropic N2 virus 5 µl (1:25), Hela cells [1]: 594 colonies
GST-EIP-2 (from UniProt P08515 1-218) |  |  |  |  |  |  | 1 fold | 69 colonies | 24 colonies | CFU/2 ul virus (Neo^r colonies after incubation of virus with purified protein, 1 µg/ml, 37° C., 1 h) [3]: 24 CFU; CFU/10 ul virus (Neo^r colonies after incubation of virus with purified protein, 1 µg/ml, 37° C., 1 h) [3]: 69 CFU; Ratio (enhancement of virus infectivity) [3]: 1
B1 |  |  |  |  |  |  |  |  |  | Ratio (enhancement of virus infectivity) [4]: 30 ratio; fold reduction of the titer of remaining virus [5]: ~4 fold
